{"source": "IntAct's records for PubMed 23164639", "parents": {"B1": {"name": "Peroxiredoxin-6 (Mus musculus), O08709 (parent)", "chain": "MPGGLLLGDEAPNFEANTTIGRIRFHDFLGDSWGILFSHPRDFTPVCTTELGRAAKLAPEFAKRNVKLIALSIDSVEDHLAWSKDINAYNGETPTEKLPFPIIDDKGRDLAILLGMLDPVEKDDNNMPVTARVVFIFGPDKKLKLSILYPATTGRNFDEILRVVDSLQLTGTKPVATPVDWKKGESVMVVPTLSEEEAKQCFPKGVFTKELPSGKKYLRYTPQP"}}}
{"variants_of": "B1", "details": "with gstp1_mouse Gstp1, P19157"}
{"variant": "C47S", "effect of a mutation on the interaction": "disrupting interaction"}
